From article PMC9512700, “Observation of conformational changes that underlie the catalytic cycle of Xrn2” (Nature Chemical Biology, 2022)

T1: CtXrn2 (Xrn2 WT, residues 1-875) (Thermochaetoides thermophila, UniProt G0S058)
T1 construct: gene CTHT_0008830; Xrn core, residues 1-875, C-terminal tag LEHHHHHH kept, E. coli BL21(DE3) CodonPlus-RIL, 100 kDa, single chain; Ile-delta1/Met methyl-labelled for NMR
T1 sequence (G0S058 1-875): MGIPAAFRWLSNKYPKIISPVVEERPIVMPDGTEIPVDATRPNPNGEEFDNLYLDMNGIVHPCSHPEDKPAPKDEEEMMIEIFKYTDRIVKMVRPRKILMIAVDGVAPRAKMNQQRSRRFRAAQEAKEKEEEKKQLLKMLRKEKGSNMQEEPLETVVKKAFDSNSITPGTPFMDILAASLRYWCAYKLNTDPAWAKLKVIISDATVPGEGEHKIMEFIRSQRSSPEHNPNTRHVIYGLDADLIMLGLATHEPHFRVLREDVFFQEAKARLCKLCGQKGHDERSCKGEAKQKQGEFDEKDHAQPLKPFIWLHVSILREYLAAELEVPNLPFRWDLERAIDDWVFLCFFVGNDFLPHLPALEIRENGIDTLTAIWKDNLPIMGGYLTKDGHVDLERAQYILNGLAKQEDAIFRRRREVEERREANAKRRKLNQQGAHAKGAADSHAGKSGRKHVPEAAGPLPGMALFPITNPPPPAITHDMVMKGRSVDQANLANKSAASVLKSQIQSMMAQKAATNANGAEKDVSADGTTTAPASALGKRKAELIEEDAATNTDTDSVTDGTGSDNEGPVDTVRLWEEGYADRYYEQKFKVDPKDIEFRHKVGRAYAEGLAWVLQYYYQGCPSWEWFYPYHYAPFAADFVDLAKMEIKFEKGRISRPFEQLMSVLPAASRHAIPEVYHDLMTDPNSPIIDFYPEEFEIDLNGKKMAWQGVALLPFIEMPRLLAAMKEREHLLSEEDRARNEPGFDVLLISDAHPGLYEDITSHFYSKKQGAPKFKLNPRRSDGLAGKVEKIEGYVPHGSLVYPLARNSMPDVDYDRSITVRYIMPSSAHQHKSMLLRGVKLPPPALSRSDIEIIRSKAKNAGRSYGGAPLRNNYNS

T2: CtXrn2 1-875 (WT) (Chaetomium thermophilum, UniProt G0S058 1-875)
T2 sequence: T1 sequence (G0S058 1-875)

T3: CtXrn2 deltaZnF (Chaetomium thermophilum, UniProt G0S058 1-875, del263-300)
T3 sequence: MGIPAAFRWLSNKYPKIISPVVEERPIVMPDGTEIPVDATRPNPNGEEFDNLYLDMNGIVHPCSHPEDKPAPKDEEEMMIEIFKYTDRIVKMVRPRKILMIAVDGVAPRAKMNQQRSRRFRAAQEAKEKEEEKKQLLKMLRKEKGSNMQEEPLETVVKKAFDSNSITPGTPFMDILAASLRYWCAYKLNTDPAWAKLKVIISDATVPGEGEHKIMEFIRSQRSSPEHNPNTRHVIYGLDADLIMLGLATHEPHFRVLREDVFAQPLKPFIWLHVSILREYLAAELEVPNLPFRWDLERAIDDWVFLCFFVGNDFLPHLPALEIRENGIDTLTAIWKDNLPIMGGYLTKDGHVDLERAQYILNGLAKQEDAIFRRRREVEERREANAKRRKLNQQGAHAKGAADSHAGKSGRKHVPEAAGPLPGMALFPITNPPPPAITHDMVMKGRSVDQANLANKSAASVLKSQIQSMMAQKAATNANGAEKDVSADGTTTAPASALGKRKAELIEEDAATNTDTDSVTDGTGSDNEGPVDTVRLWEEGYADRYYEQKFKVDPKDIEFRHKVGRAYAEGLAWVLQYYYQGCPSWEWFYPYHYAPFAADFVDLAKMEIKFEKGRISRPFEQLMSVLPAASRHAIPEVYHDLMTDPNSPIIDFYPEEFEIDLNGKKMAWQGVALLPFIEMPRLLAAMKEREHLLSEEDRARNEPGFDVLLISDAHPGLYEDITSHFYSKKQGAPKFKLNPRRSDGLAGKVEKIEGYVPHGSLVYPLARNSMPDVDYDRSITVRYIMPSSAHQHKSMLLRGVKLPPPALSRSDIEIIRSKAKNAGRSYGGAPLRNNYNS

B1: ZIKV xrRNA (structured_RNA)
RNA: GGGAGUGUUGUAAGCACCAAUUUUAGUGUUGUCAGGCCGGCGAAAGUCGCCACAGUUUGGGGAAAGCUGUGCAGCCUGUAACCCCCCCACGAAAGUGGG
modifications: 5'-monophosphate

What was measured:
[1] = target: T1, CtXrn2 (Xrn2 WT, residues 1-875); test: 1H-13C HMQC methyl-TROSY NMR chemical shift perturbation; assay type: binding; details: 313 K; 5 mM MgCl2; 50 uM protein; 500 uM pAp; around active site
[2] = target: T4, CtXrn2 (Xrn2 WT, residues 1-875) (Thermochaetoides thermophila, UniProt G0S058, A5F); test: 1H-13C HMQC methyl-TROSY NMR; assay type: binding; details: 313 K; 5 mM MgCl2; 50 uM protein; 500 uM pAp
T4 construct: gene CTHT_0008830; Xrn core, residues 1-875, C-terminal tag LEHHHHHH kept, E. coli BL21(DE3) CodonPlus-RIL, 100 kDa, single chain; Ile-delta1/Met methyl-labelled for NMR
T4 sequence (G0S058 entry or part of it A5F): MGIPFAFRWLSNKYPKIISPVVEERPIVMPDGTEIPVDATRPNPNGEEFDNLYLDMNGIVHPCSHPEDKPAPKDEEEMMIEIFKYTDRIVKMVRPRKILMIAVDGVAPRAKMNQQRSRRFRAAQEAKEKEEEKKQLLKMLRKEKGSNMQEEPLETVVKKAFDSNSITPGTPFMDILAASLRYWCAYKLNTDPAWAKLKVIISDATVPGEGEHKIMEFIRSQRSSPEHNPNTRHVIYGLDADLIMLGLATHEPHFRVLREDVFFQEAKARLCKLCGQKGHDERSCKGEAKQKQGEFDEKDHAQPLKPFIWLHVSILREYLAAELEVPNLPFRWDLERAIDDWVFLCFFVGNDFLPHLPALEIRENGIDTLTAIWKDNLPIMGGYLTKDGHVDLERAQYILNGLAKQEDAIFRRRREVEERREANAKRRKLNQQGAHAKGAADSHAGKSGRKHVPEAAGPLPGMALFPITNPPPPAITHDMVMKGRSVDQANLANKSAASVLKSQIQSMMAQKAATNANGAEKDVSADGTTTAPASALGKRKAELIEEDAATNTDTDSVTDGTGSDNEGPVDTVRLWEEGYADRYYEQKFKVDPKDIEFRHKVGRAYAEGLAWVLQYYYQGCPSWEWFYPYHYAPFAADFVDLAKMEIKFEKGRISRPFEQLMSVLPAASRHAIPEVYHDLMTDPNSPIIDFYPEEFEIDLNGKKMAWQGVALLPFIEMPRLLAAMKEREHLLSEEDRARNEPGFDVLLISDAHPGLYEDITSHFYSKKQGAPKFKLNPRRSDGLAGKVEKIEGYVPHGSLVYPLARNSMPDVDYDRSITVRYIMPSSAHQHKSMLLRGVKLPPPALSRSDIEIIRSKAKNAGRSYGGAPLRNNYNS

CtXrn2 1-875 (WT) [3] = target: T2, CtXrn2 1-875 (WT); test: fluorescence anisotropy; no Mg2+, with Zn2+; Fluorescence anisotropy: 25 mM HEPES pH 7.3, 125 mM NaCl, 0.002% Triton, no Mg2+, with Zn2+, temperature not stated (room temperature used for dG); NMR: 25 mM H; details: protein: recombinant; label: fluorescein on 3' thiouridine (6-iodoacetamido-fluorescein); single strand
CtXrn2 deltaZnF = target: T3, CtXrn2 deltaZnF; test: as above; details: protein: recombinant; label: fluorescein on 3' thiouridine (6-iodoacetamido-fluorescein); single strand
CtXrn2 1-875 (WT) [4] = target: T2, CtXrn2 1-875 (WT); test: NMR (methyl-TROSY CSP of M704); no Mg2+; active state not formed; Fluorescence anisotropy: 25 mM HEPES pH 7.3, 125 mM NaCl, 0.002% Triton, no Mg2+, with Zn2+, temperature not stated (room temperature used for dG); NMR: 25 mM H; details: protein: recombinant; single strand
CtXrn2 1-875 (WT) [5] = target: T2, CtXrn2 1-875 (WT); test: NMR (methyl-TROSY CSP); 5 mM Mg2+; RNA trimmed at 5' end; locked in pre-translocation state; Fluorescence anisotropy: 25 mM HEPES pH 7.3, 125 mM NaCl, 0.002% Triton, no Mg2+, with Zn2+, temperature not stated (room temperature used for dG); NMR: 25 mM H; details: protein: recombinant; pseudoknot with unstructured 5' end

Molecule	binding result (CtXrn2 1-875 (WT) [3])	binding signal (CtXrn2 deltaZnF)	further results
Nc1ncnc2c1ncn2[C@@H]1O[C@H](COP(=O)(O)O)[C@@H](OP(=O)(O)O)[C@H]1O [pAp]			1H-13C HMQC methyl-TROSY NMR chemical shift perturbation [1]: The binding of pAp to Xrn2 resulted in substantial chemical shift perturbations; 1H-13C HMQC methyl-TROSY NMR [2]: HMQC spectra of the Xrn2 WT:pAp complex (black) and Xrn2 A5F:pAp complex (orange)
GGAGGAGAGU (ssRNA, 5'-monophosphate; 3'-terminal 4-thiouridine) [10-mer RNA]	binds	~3 fold Kd increase vs WT	
AAAAA (ssDNA, 5'-phosphate) [pdA5]			binding result (CtXrn2 1-875 (WT) [4]): binds
GGAGU (ssRNA, 5'-monophosphate; 3'-terminal 4-thiouridine) [5-mer RNA]	binds	1.5 fold Kd increase vs WT	
B1			binding result (CtXrn2 1-875 (WT) [5]): binds
